Results on one substance are retold here after PMC12141448.

For experiment [1], the target named is PelB of P. aeruginosa PAO1, C-terminal fragment (residues 762-1193) with three periplasmic TPR repeats and the transmembrane β-barrel (Pseudomonas aeruginosa PAO1) (UniProt Q9HZE5). The experiment in a line: cryo-EM structure; PelBC complex in MSP1D1 nanodiscs (POPC:POPG 70:30), 50 mM HEPES pH 7.4, 150 mM NaCl; no symmetry imposed; 2.52 Å.
The target in experiment [2] is PelC lipoprotein of P. aeruginosa PAO1 (Pseudomonas aeruginosa PAO1). The experiment is described as above.

Regarding “PelC lipoprotein of P. aeruginosa PAO1 (natural protein)”, in experiment [1], the stoichiometry N (PelC per PelB) is 12. The same substance had a stoichiometry N in experiment [2] of 12 subunits.

In general, stoichiometry N refers to the number of molecules, sites or subunits per partner or assembly.
